# In the supplement of paper PMC12764529:
# ± gives the half width of the 95% confidence interval.
# Experiment: folding stability dG unfold from trypsin proteolysis; higher = more stable
# Summary of the method: (§1)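 Designed mini-proteins with no cysteine and under 80 residues were kept only if AlphaFold2 dimer inter-PAE was above 15. In a PA-tagged cDNA display construct, they were digested with trypsin and chymotrypsin and then sequenced. K50 was inferred by Bayesian fitting of counts, and unfolding free energy was derived per protease or combined against a sequence-predicted unfolded-state K50 and a shared folded-state K50.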
row,Sequence,folding stability dG unfold
1,SAGGGIVIPVPAETARELLEKLAPDGADVTVESLGSLGGGEVYRATFTDPVFGNTVDIEVLVGPEGGSAGGS [r16_486_TrMRF],0.392 ± 0.028 kcal/mol
2,SAGGMTITIPVTESGSLEEALALAERVAEEARAAGLEEVTITVTVYDPANGEVLYTKTRRVPVRPEASAGGS [r8_33_JUSTAS],2.03 ± 0.032 kcal/mol
3,SAGGSAGGSKKVKIEINVVVPPGMTPEKAKQMAEEFAREIAEAYGGKDVKVKVRIMYIPPDQFSAGGSAGGS [r12_522_TrROS],2.04 ± 0.084 kcal/mol
4,SAGMPAETETTVTITTETIDEKGNLSTKTYTATVRTLPDGRVLVYLENELLLIDPATGEVVAREPNYKPSAG [r14_821_JUSTAS],2.3 ± 0.025 kcal/mol
5,SAGGSAMLVKVTITLKKGGKEYTLEQFVEVNPPDLKIEIPPEIKEKGWEIVDIEVEEITPEEAERKSAGGSA [r15_853_JUSTAS],1.24 ± 0.091 kcal/mol
6,SAGGSAIFVVKIEPPNGNPITFMFWFKTPEEAESQVEEIAEQLPPDWKVEVEYIPAEDLKNGKPFFSAGGSA [r15_469_TrROS],2.13 ± 0.045 kcal/mol
7,SAGGMKTYTVTVEREVPDPSSDKWVYSTETLTIPYNVDPKTGTTPEEVAEELKAALPPDVLRVEFTDESAGG [r13_335_JUSTAS],-0.166 ± 0.14 kcal/mol
8,SAGGSAGGSAGGSAKITIEYNPETNTLTVTITLENGEKVEITVPPNATLEEIEELAKKASAGGSAGGSAGGS [r4_205_TrROS_Hall],3.41 ± 0.28 kcal/mol
9,SAGGSAGGEEIAKKLGIEKAEIVEVKDNKITLKVKLKNGEELKIELYIDKKTKEIKIVKIEKVPSAGGSAGG [r6_526_TrROS_Hall],2.37 ± 0.079 kcal/mol
10,SAGGSAGGSAGGPDWRMISIPITFRFYVMEYDGGKPKKAEPIHEHPIPIMIMFPPDALKSAGGSAGGSAGGS [r10_492_TrROS],1.87 ± 0.032 kcal/mol
11,SAGGSAGGSAKTYEVKITVTNPNGEKKEITLEVEAETEEELLAAIKALAPPGAKVEIEIREVSAGGSAGGSA [r18_60_TrROS_Hall],4.33 ± 0.28 kcal/mol
12,SAGGRVRLEERVLPDGRRVLVVHLPDRPLEVVIPLEGLALPPDQPVLVRGEGGVRELPIGDLLPEALFSAGG [r13_97_TrMRF],1.06 ± 0.011 kcal/mol
13,SAGGSAGGSAGDNIYVFEIDIKIKPRKDPDGKWQPEIEINIKIKDIKPIPPNDPELKDLLSAGGSAGGSAGG [r11_236_TrROS],2 ± 0.05 kcal/mol
14,SMVEIKVEKKEDGTVKITIVAPLEKAEEIAKKLAEELGKEVKIVKIEKKKVKVNGEERELVKIEIEIRLPSA [r9_431_TrROS_Hall],2.86 ± 0.28 kcal/mol
15,SAGMKVTTFTTPTRTVTVTLTPDGTVTVTVTDPSGNPTVTAPDGTPVASTTAPDGTTTFTLDPALFAAASAG [r5_457_JUSTAS],0.717 ± 0.047 kcal/mol
16,SAGGSAGGSAGAEELAKKLKELGFEVKVEKNEDGSLTLTVKFKPKPKPKKVVTKDGKEVKSAGGSAGGSAGG [r17_503_TrROS_Hall],0.579 ± 0.076 kcal/mol
17,SAGGSAGGSAVSPDETVPIKIDGKEVTVTFNGSKATITFPDGTVIEGTVSTEGSKLTLDLNLSAGGSAGGSA [r18_172_JUSTAS],1.74 ± 0.053 kcal/mol
18,SAKKKVIEVELPPDAKVVTIKLEGKGVEITFVEVDGKLVITVRYKDDPSKTVTIVVKTKEEADALLKALSAG [r14_716_TrROS_Hall],1.23 ± 0.082 kcal/mol
19,SANDDDWVTVIFEIPIVRKDPDGKPEKHPFRLMVQVHPDGRVEINIMYPNGRPIASQTVPPGQTLEDFISAG [r14_559_TrROS],2.63 ± 0.13 kcal/mol
20,KSKEEQKEQQEEQQKPPPVEIKVEVEVVKSPNGNPYFQFNVEYYDPGDGEPIGEITISVPPDDVDELADEFS [r1_415_TrROS],1.97 ± 0.4 kcal/mol
21,SAGGEAEVVEPEEKLEIVDKETGKKITVYKVKNKETGEEVVLVEIEKNGKKYTVLMTKDELEALLKKSAGGS [r16_603_TrROS_Hall],2.38 ± 0.21 kcal/mol

row,Sequence,folding stability dG unfold
1,SAGKWKVRTIPLPGFSITIWYDPDEGRIRISITMWMWKPKKDPENGKPKQEHRMMTMEAPIPIPPGAPISAG [r5_195_TrROS],1.86 ± 0.074 kcal/mol
2,SAGGSSGSIDRVELLSFDPEKGIALVRFPSFGSIQVIPIPPGKNSLKVKVINKNGEPFEFTFSLPLSAGGSA [r2_132_TrMRF],2.82 ± 0.082 kcal/mol
3,SAGGSAMTTIVKTEPPTLDEEGNPYIRLTIKFPNGGTTTITLAPSELPQYLADLPPGFEVEEINPLSAGGSA [r15_339_JUSTAS],2.41 ± 0.11 kcal/mol
4,SAGEKPEKPPEVTITITSVKVERLPDGTVVVEVEAEIEVDGVTLTVRARFVYRDGKLFLEVEVRLEPLPSAG [r5_267_TrROS_Hall],3.5 ± 0.19 kcal/mol
5,KKKILIFITGDNPELAERIRKELEELGYDVEVKVVTTPEEMEKAIEEAEKTDIVIVIHLPPALPLSPELAFS [r1_497_TrMRF],2.58 ± 0.13 kcal/mol
6,SAGGSAGGSAGGMILVENPSLNESTVLSKDTPISSFKVPSDNSKVRIIIIYPSNSFVVISSAGGSAGGSAGG [r7_763_JUSTAS],1.85 ± 0.073 kcal/mol
7,SAGGSALAEKAKELALEKGYDPVKVTYDPKTGTLTMTAKPPGGKEVKMTFTIDEDTITITTTPLTKSAGGSA [r15_561_JUSTAS],0.996 ± 0.033 kcal/mol
8,SADSVPIKLTFTFEVPEEIYEAAVKAIEDIFKDLGLEVEFEAKAEPGEEGVKVTVELNLTIPPNNPNLISAG [r14_76_TrMRF],2.44 ± 0.2 kcal/mol
9,SAGGMNISIEPIGRDNDRWYYMITFPGDANEIKDFIEEFLPPGLPIKVKVLEVDPENGHVTVMIEIPRSAGG [r13_491_TrROS],2.21 ± 0.042 kcal/mol
10,SAGGSAGGMPEYRVLDIEIETRPDMTPEEAVEEIRKALEPLGAIRVEAEPLPDGRIRVRVVLPESAGGSAGG [r6_881_TrMRF],3.5 ± 0.28 kcal/mol
11,SAPWVYHVRIEYKGPDGEPVAEHTIMVKTPEALKEQIRKHFGLSPAQIKNIEVEPVIPAEEMNEMQEKGSAG [r14_852_TrROS],0.204 ± 0.13 kcal/mol
12,SAGGPDIKIKWKIEVNPDNGMIWLTMEIEVPNPNGDFYKVRADIYIPIVNPDDGKFPIFIMLEVEPVPSAGG [r13_715_TrROS],3.36 ± 0.3 kcal/mol
13,SAGGSAEEELLKAIKEALEKAKEGETVELEITLEDGSTLRITFDAENGKITVTLPNGEKLELTIEPSAGGSA [r15_977_TrROS_Hall],3.18 ± 0.19 kcal/mol
14,SAGGSAKIKIPKSYTAEILDASYDPETKTVTVKIKLFGKPATATIYPDGTVEIDLPNGKKITIPVGSAGGSA [r15_111_TrMRF],1.47 ± 0.083 kcal/mol
15,SAGGSAGGSAGMTKTITVGDKKVNVTITPLPTPTTKVTITFPDGSTKTVTLPAGTPITLGSAGGSAGGSAGG [r11_525_JUSTAS],0.566 ± 0.045 kcal/mol
16,SAGGSAGGSDEEVEVTLYPVDPSAPDDTVYYAEVTFPNGLVARYRFRKKDGKVEGELVEVKPASAGGSAGGS [r12_1049_TrMRF],1.65 ± 0.048 kcal/mol
17,SAGGSAGGMVIHEIEVESPDPEKAEEEAKARAEEIRKALEEEEGGIPGEVKFVPTPEEDPLLLLSAGGSAGG [r6_23_JUSTAS],1.99 ± 0.13 kcal/mol
18,SAGGMVTITLPEVNVEDPEVAEARMEEIAARLRAAGVTVTSASYDPEKGLATITVSAGGLSAAEVLASAGGS [r8_344_JUSTAS],2.48 ± 0.042 kcal/mol
19,SAGSSMSLPLPEEIEIEIPNPGLSLEEIKKIVADKLGLKIVSVEEEEGRLVFKAENGIPIRVKIEEPGKSAG [r5_350_JUSTAS],2.35 ± 0.13 kcal/mol
20,SAKITFIAPGGKPIVIDIDPNYEVIEVIEFPELGVVLILLRNPETGELYAILITPPDYRPTYIELIPLDSAG [r14_311_TrMRF],3.43 ± 0.096 kcal/mol
21,SAGGSAGGSAGGMVVKIKVDGKTITLSAEELKKNKDLLKELEKKGYKIVSIEVFEPEEESAGGSAGGSAGGS [r10_396_TrROS_Hall],1.57 ± 0.056 kcal/mol

# Experiment: folding stability dG unfold (combined trypsin and chymotrypsin); higher = more stable
# Summary of the method: as §1
row,Sequence,folding stability dG unfold
1,SAGGGIVIPVPAETARELLEKLAPDGADVTVESLGSLGGGEVYRATFTDPVFGNTVDIEVLVGPEGGSAGGS [r16_486_TrMRF],0.437 ± 0.096 kcal/mol
2,SAGGMTITIPVTESGSLEEALALAERVAEEARAAGLEEVTITVTVYDPANGEVLYTKTRRVPVRPEASAGGS [r8_33_JUSTAS],2.21 ± 0.031 kcal/mol
3,SAGGSAGGSKKVKIEINVVVPPGMTPEKAKQMAEEFAREIAEAYGGKDVKVKVRIMYIPPDQFSAGGSAGGS [r12_522_TrROS],2.08 ± 0.13 kcal/mol
4,SAGMPAETETTVTITTETIDEKGNLSTKTYTATVRTLPDGRVLVYLENELLLIDPATGEVVAREPNYKPSAG [r14_821_JUSTAS],2.28 ± 0.051 kcal/mol
5,SAGGSAMLVKVTITLKKGGKEYTLEQFVEVNPPDLKIEIPPEIKEKGWEIVDIEVEEITPEEAERKSAGGSA [r15_853_JUSTAS],2.8 ± 0.28 kcal/mol
6,SAGGSAIFVVKIEPPNGNPITFMFWFKTPEEAESQVEEIAEQLPPDWKVEVEYIPAEDLKNGKPFFSAGGSA [r15_469_TrROS],2.2 ± 0.068 kcal/mol
7,SAGGMKTYTVTVEREVPDPSSDKWVYSTETLTIPYNVDPKTGTTPEEVAEELKAALPPDVLRVEFTDESAGG [r13_335_JUSTAS],0.317 ± 0.13 kcal/mol
8,SAGGSAGGSAGGSAKITIEYNPETNTLTVTITLENGEKVEITVPPNATLEEIEELAKKASAGGSAGGSAGGS [r4_205_TrROS_Hall],3.04 ± 0.3 kcal/mol
9,SAGGSAGGEEIAKKLGIEKAEIVEVKDNKITLKVKLKNGEELKIELYIDKKTKEIKIVKIEKVPSAGGSAGG [r6_526_TrROS_Hall],2.88 ± 0.23 kcal/mol
10,SAGGSAGGSAGGPDWRMISIPITFRFYVMEYDGGKPKKAEPIHEHPIPIMIMFPPDALKSAGGSAGGSAGGS [r10_492_TrROS],2.91 ± 0.07 kcal/mol
11,SAGGSAGGSAKTYEVKITVTNPNGEKKEITLEVEAETEEELLAAIKALAPPGAKVEIEIREVSAGGSAGGSA [r18_60_TrROS_Hall],4 ± 0.13 kcal/mol
12,SAGGRVRLEERVLPDGRRVLVVHLPDRPLEVVIPLEGLALPPDQPVLVRGEGGVRELPIGDLLPEALFSAGG [r13_97_TrMRF],0.88 ± 0.036 kcal/mol
13,SAGGSAGGSAGDNIYVFEIDIKIKPRKDPDGKWQPEIEINIKIKDIKPIPPNDPELKDLLSAGGSAGGSAGG [r11_236_TrROS],1.94 ± 0.07 kcal/mol
14,SMVEIKVEKKEDGTVKITIVAPLEKAEEIAKKLAEELGKEVKIVKIEKKKVKVNGEERELVKIEIEIRLPSA [r9_431_TrROS_Hall],2.24 ± 0.78 kcal/mol
15,SAGMKVTTFTTPTRTVTVTLTPDGTVTVTVTDPSGNPTVTAPDGTPVASTTAPDGTTTFTLDPALFAAASAG [r5_457_JUSTAS],0.896 ± 0.073 kcal/mol
16,SAGGSAGGSAGAEELAKKLKELGFEVKVEKNEDGSLTLTVKFKPKPKPKKVVTKDGKEVKSAGGSAGGSAGG [r17_503_TrROS_Hall],1.61 ± 0.26 kcal/mol
17,SAGGSAGGSAVSPDETVPIKIDGKEVTVTFNGSKATITFPDGTVIEGTVSTEGSKLTLDLNLSAGGSAGGSA [r18_172_JUSTAS],1.46 ± 0.13 kcal/mol
18,SAKKKVIEVELPPDAKVVTIKLEGKGVEITFVEVDGKLVITVRYKDDPSKTVTIVVKTKEEADALLKALSAG [r14_716_TrROS_Hall],1.66 ± 0.27 kcal/mol
19,SANDDDWVTVIFEIPIVRKDPDGKPEKHPFRLMVQVHPDGRVEINIMYPNGRPIASQTVPPGQTLEDFISAG [r14_559_TrROS],3.38 ± 0.23 kcal/mol
20,KSKEEQKEQQEEQQKPPPVEIKVEVEVVKSPNGNPYFQFNVEYYDPGDGEPIGEITISVPPDDVDELADEFS [r1_415_TrROS],2.46 ± 0.71 kcal/mol
21,SAGGEAEVVEPEEKLEIVDKETGKKITVYKVKNKETGEEVVLVEIEKNGKKYTVLMTKDELEALLKKSAGGS [r16_603_TrROS_Hall],2.98 ± 0.28 kcal/mol
